Here are results for 3 molecules from patent US20210101970A1 (Pfizer, published 2021).

The target in assay [1] is T1, human CXCR5 (human, UniProt P32302 1-372).
T1 sequence: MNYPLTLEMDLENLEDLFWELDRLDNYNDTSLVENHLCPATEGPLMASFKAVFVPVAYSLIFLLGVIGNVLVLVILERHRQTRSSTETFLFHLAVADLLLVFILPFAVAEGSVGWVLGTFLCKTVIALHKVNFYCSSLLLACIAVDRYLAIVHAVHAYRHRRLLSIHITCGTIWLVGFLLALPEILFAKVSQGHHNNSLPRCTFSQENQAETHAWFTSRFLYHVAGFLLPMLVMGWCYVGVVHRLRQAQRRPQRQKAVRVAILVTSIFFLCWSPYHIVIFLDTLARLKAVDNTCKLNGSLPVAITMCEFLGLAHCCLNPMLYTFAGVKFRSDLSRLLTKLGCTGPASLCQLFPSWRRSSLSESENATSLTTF
As to the kind of experiment: cell-based or functional assay.

Assay [2] deals with T1, human CXCR5. As to the kind of experiment: flow cytometry, human PBMC Tfh-like cells. On the procedure: The apparent affinity for cell surface CXCR5 of chimeric and humanized CXCR5 fucosylated and afucosylated antibodies was assessed. More specifically, to determine the apparent affinity of chimeric and humanized CXCR5 antibodies to CXCR5-expressing cells, cell binding experiments were performed on human and cynomolgus monkey peripheral blood mononuclear cells (PBMCs) and human tonsillar mononuclear cells (TMCs). The apparent affinity of CXCR5 mab binding to CXCR5+ cells (B cells, bona fide Tfh cells, and circulating Tfh-like cells) was calculated as the EC50 of equilibrium binding titration curves in which the geometric mean fluorescence intensity (gMFI) of the antigen binding population was quantified by flow cytometry.
Following isolation, PBMCs were plated at a density of 1.0×10⁵ cells per well and CD4+ TMCs were plated at a density of 2.0×10⁵ cells per well in isolation buffer (PBS containing 1% FBS and 1 mM EDTA) in 96 well U-bottom plates. The plates were then centrifuged at 1500 rpm for 5 minutes at room temperature. PBMCs and CD4+ TMCs were resuspended in Fluorescence-activated cell sorting (FACS) buffer (PBS containing 1% FBS) containing human crystallized fragment Fc block (2 μL per well; Biolegend) and 4-fold serial dilutions of the antibodies (11-point dilution series, beginning at 5000 ng/mL for PBMCs and 312.5 ng/mL for CD4+ TMCs) and incubated on ice for 2 hours. […]
(A flow cytometer gives signals particle by particle.)

Assay [3] deals with T1, human CXCR5. As to the kind of experiment: flow cytometry on Raji cells, fucosylated chimeric antibody. On the procedure:
The fucosylated chimeric antibodies were then purified using protein A columns. The apparent affinity (cell binding EC50s) of chimeric antibody binding to Raji cells was determined by flow cytometry using a FACSVerse Analyzer (BD Bioscience, Franklin Lakes, N.J.) and are shown in Table 3.

Assay [4] has as its target T2, CXCR3 (human, UniProt P49682 1-368).
T2 construct: whole, on cells
T2 sequence (looked up): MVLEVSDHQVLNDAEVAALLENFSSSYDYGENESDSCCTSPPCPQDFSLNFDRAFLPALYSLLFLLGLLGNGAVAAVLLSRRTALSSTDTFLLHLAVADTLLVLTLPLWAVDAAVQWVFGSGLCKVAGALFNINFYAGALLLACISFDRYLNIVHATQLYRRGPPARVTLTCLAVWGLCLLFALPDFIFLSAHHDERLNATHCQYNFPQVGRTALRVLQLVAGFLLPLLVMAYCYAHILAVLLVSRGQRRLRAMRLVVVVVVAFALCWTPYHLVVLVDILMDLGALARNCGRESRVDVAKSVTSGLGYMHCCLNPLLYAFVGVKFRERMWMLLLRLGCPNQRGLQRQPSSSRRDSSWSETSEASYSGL
Description: flow cytometry (GMFI) on fixed CXCR3 cells, chimeric antibody, goat anti-human PE. On the procedure: To determine the specificity of the antibodies for CXCR5, the binding of the antibodies to cells expressing other […] was assessed. Briefly, FlowCellect chemokine receptor cell lines expressing CXCR1, CXCR2, or CXCR3 (EMD Millipore, Billerica, Mass.), and Jurkats (ATCC, Manassas, Va.), which express CXCR4, were stained with 5 μg/ml or 10 μg/ml of each anti-CXCR5 chimeric antibody. The cells were then incubated with goat anti-human conjugated with PE (Southern Biotech, Birmingham, Ala.) prior to analysis by flow cytometry using a FACSVerse Analyzer (BD Biosciences, Franklin Lakes, N.J.).

Assay [5] deals with T1, human CXCR5. As to the kind of experiment: cell-based or functional assay. The source holds these as a separate data set.
Assay [6] has as its target T1, human CXCR5. As to the kind of experiment: flow cytometry on Raji cells.
Assay [7] addresses T1, human CXCR5. Description: flow cytometry, B cells from human PBMCs (FIG. 5); comparator 2C9.

B1: Afucosyl humanized 11G2 154/155 (antibody, human IgG1, kappa, V domains shown)
VH: EVQLVESGGGLVQPGGSLRLSCAASGFTFTDFYMSWVRQAPGKGLEWVGFIRNKANGYTTEYSASVKGRFTISRDNAKNSLYLQMNSLRAEDTAVYYCARVYGSTLHYWGQGTLVTVSS
VL: DIQMTQSPSSLSASVGDRVTITCRASESVEYHGTSLMHWYQQKPGKAPKLLIYAASNVESGVPSRFSGSGSGTDFTLTISSLQPEDFATYYCQQSRKVPWTFGQGTKVEIKR
modifications: afucosylated Fc glycan (Asn297)
notes: also called afucosyl h11G2 XC154/XC155; afucosylated h11G2 VL XC154/VH XC155
On to B1, for which, in assay [1], the “ADCC (EC50, pM)” value was determined as 2.38 pM. The same molecule displayed a 50% effective concentration (EC50) in assay [2] of 0.00589 nM.

B2: Chimeric 11G2 (antibody, human IgG1, kappa, V domains shown)
VH: EVKLVESGGGLVQPGGSLRLSCATSGFTFTDFYMSWVRQPPGRALEWLGFIRNKANGYTTEYSASVKGRFTISRDNSQSILYLQMNTLRAGDSATYYCVRVYGSTLHYWGQGTILTVSS
VL: DVVVTQSPDSLAVSLGQRATISCRASESVEYHGTSLMHWYQQKPGQPPKLLIYAASNVESGVPARFSGSGSGTDFSLNIHPVEEGDIAMYFCQQSRKVPWTFGGGTKLEIKR
notes: mouse V regions on human IgG1/kappa; also called 11G2 (chimeric)
As to B2, in assay [3], the midpoint of the response, the EC50, lay at 0.0175 nM. Besides, the binding result in assay [4] is listed as “no binding (tested: 5 or 10 µg/ml (not on the sheet))”.

B3: 2C9 (reference antibody) (antibody, human IgG1, kappa, V domains shown)
VH: EVQLVESGGGLVKPGGSLRLSCAASGFTFSTNAMNWVRQAPGKGLERVARIRSKSNNYATYYADSVKDRFTISRDDSKNTLYLQMNSLKTEDTAVYYCVTMIPFAYWGQGTLVTVSS
VL: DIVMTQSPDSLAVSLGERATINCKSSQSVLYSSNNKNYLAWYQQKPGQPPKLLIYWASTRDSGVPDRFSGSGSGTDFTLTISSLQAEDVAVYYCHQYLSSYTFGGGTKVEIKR
notes: fucosylated
On to B3, for which, in assay [5], the “Ca2+ flux IC50” value was 3.49 nM. Also, the figures for the concentration for a half-maximal effect (EC50) in assay [6] and in assay [7] were 0.0999 nM and 0.0624 nM, respectively.

The EC50 is the concentration that produces a half-maximal response. A lower EC50 goes with a more potent agent.
